{"source": "the DeepSol protein solubility set", "experiment": "soluble on expression in E. coli; label from the status in PepcDB or PDB records", "data": [{"sequence": "MAHHHHHHMVPVKVKWGRETFELTVDLRSTVKCFKEQLQQLTSVPVERQKIMGVKASQCNDNEVTLEAAGVAAGKTLMLIGTAAEVVRATPIVATGNKDSAVQAPASHPAEKQAVGLQNIANTCYMNAAVQMLRLVPEVRDVLNFNANDPIVSELLKLYNTMDTKRDPVVPASLWSILLAHFPTFAEVNEKGHPMQHDSQEALNALLQRINSCLPESHKRLFTGNLSQKMVCKDDPDDQPVLHDVPFLMLSCNIDAEIETLEAGLEAAFNETVKLHSEKLAREALHTRTSRIAAMPEYLFIHMVRFSWRSDIQSKAKILKPVTFPMTLDLHALCAEEYKPELEVERKRVLKRRDIEMERRRAAKNKTKLDDDEAAPAEDASNTAEPINTTVGNHSGYYELCGVISHKGRSADSGHYVFWGKYADQWMVLDDSNTAAVSEEDVKRLRGSGEAHIAYVLMYRSRDPRTKQSVIPL", "values": [{"measurement": "soluble on expression in E. coli", "result": "soluble"}]}, {"sequence": "MSLEDTLQAPTPLQIERWLRKQFYSVDRNREDRISAKDLKNMLSQVNYRVPNMRFLRERLTDLEQRSGDITYGQFAQLYRSLMYSAQKTMDLPFLEASTLRAGERPELCRVSLPEFQQFLLDYQGELWAVDRLQVQEFMLSFLRDPLREIEEPYFFLDEFVTFLFSKENSVWNSQLDAVCPDTMNNPLSHYWISSSHNTYLTGDQFSSESSLEAYARCLRMGCRCIELDCWDGPDGMPVIYHGHTLTTKIKFSDVLHTIKEHAFVASEYPVILSIEDHCSIAQQRNMAQYFKKVLGDTLLTKPVEISADGLPSPNQLKRKILIKHKKLAEGSAYDENSPLGDLLRGVLDVPACQIAIRPEGKNNRLFVFSISMASVAHWSLDVAADSQEELQDEGHHHHHH", "values": [{"measurement": "soluble on expression in E. coli", "result": "not soluble"}]}, {"sequence": "MRKIVLFGDSITAGYLDEAVSPVLVDLVKRDIAAMGLEEVAVINAGMPGDTTEDGLKRLNKEVLIEKPDEVVIFFGANDASLDRNITVATFRENLETMIHEIGSEKVILITPPYADSGRRPERPQTRIKELVKVAQEVGAAHNLPVIDLYKAMTVYPGTDEFLQADGLHFSQVGYELLGALIVREIKGRLKPKQA", "values": [{"measurement": "soluble on expression in E. coli", "result": "soluble"}]}, {"sequence": "MQIFPYSDDPNKRYHTWNYALRQQFGEKIFKVPIDGGFDCPNRDGTVAKGGCTFCSVSGSGDMIVAPSDPLPLQFQKEIQLMHQKWPTVDQYIVYFQNFTNTHAPVDVIRHRFEQVVNEKGVVGLSIGTRPDCLPDEVVNYLAELNERFYLWVELGLQTTFEETSAAINRAHDYQTYLDGVAKLRKHGIRVCTHLINGLPGETPAMMRENVRRTIQDSDIQGIKLHLLHLMTNTKMMRDYNEGRLQLMSKEAYVSVICDQLEMIPPEIVIHRLTGDAPFETIIGPMWSLKKWEVLNAIDAEMKRRNSYQGKYTVISGKEVFN", "values": [{"measurement": "soluble on expression in E. coli", "result": "not soluble"}]}, {"sequence": "MDTEPIQIDSDDSFDAGAPTSSHTMDRKSIIEKYQKLKEESKKLDDLAVEVRSLFMICKQMEECYTKRIDRIVATYGEIRYLHDGTILLLVTIHNITNQPMIDWVISINPTSIFPNSSSSCCQTINVGSLLPGIRKTFQCQLTCKDPPVLLQLSLLRTYQLGGIVKCFKVKLDPILVTAWNQAQRVERKNMETSFTSTIRLPNSLINLLSGSPDTVISVPQVFKSILNVPNVQEDHIVIKMSSAFVVGATGAVGSELVKLLAESTKFSKVVVLARRPVDGATGDKLIQKTVDFDKLEENAEDIQGVDVAFCALGTTRGKSGADGFYKVDHDYVMSAAKMAKENGVKQFVLVSSVGADASSRFLYPKTKGEVEKEIGELNFEKFVIMRPGLIEAKRPEFRIGEFLGKIVTAPLGLFSNRFSSSATAIAQAMINATQTEETGNQIWNNSKIVEESKKYTA", "values": [{"measurement": "soluble on expression in E. coli", "result": "not soluble"}]}, {"sequence": "MGSDKIHHHHHHMTTNNASPEAGHIMQTRTVDLDGQVLRVGIRPGSGDLPPLLMFNGIGANLELVEPFVDALPDVEVIIFDIPGAGGSPAPLFPYRFSNLCVMADKLLSHLGYAGPVDTLGVSWGGALAQEFARLYPQRCRRLVLAATSPGVLMVPGSPSVLTKMIGIRRYTDAEYLRRVGGDIYGGAFRDDPSLLDVHGGHMRPPRGRGYLYQLLAAWGWSSLPWLRALKQRTLVLHGSDDPIVPLINAKILSGCIPDSALHVFHDDGHLFLLTAARESARVVGEFLREGR", "values": [{"measurement": "soluble on expression in E. coli", "result": "not soluble"}]}, {"sequence": "MDQTIHHQIQQALHFRTAVRVYKEEKISDEDLALILDAAWLSPSSIGLEGWRFVVLDNKPIKEEIKPFAWGAQYQLETASHFILLIAEKHARYDSPAIKNSLLRRGIKEGDGLNSRLKLYESFQKEDMDMADNPRALFDWTAKQTYIALGNMMMTAALLGIDTCPIEGFHYDKVNHILAKHNVIDLEKEGIASMLSLGYRLRDPKHAQVRKPKEEVISVVK", "values": [{"measurement": "soluble on expression in E. coli", "result": "soluble"}]}, {"sequence": "MGSDKIHHHHHHVSDSPLPDSETSAAAEFKVDNCALVLEGGGLRAIYTAGVLDAFLAAGIHFQYLVGVSAGAIYPASYLSRQMGRNLTIQQNFLADKRYMGLKHLLRTGNYVNTDFTYRRMAHELVPYDFDAFASSEAEFKVGAFNCLTGETDFFGMADFADHDTFLEVLIASSSLPFISKPTFIDGTPYLDGGIGAPIPLAQAREDGYKRQVVILTQEQDYRKSAFKAKWLAKRLYRRYPKVASALLARHQVYNQALDDLTKAQADGSALVLQPATPMGLSRLERDVSKVEAVYRRGLSEGEAFIPSLLAFIENC", "values": [{"measurement": "soluble on expression in E. coli", "result": "not soluble"}]}, {"sequence": "GKKDTQSITLEELAKIIKKCKHVVALTGSGTSAESNIPSFRGSSNSIWSKYDPRIYGTIWGFWKYPEKIWEVIRDISSDYEIEINNGHVALSTLESLGYLKSVVTQNVDGLHEASGNTKVISLHGNVFEAVCCTCNKIVKLNKIMLQKTSHFMHQLPPECPCGGIFKPNIILFGEVVSSDLLKEAEEEIAKCDLLLVIGTSSTVSTATNLCHFACKKKKKIVEINISKTYITNKMSDYHVCAKFSELTKVANILKGSSEKNKKIM", "values": [{"measurement": "soluble on expression in E. coli", "result": "soluble"}]}, {"sequence": "MAHHHHHHMYVLEGFYESVYNARWHHVVEVPDGEGTGMEVREGKSPQSWTYRAAGEFLEKNDGEEQSGALRPRLMVLTSGKGWPYSWEEDESTPDCYVNCEVDRVWQIVRNDLTELLGPDPGADFRPERRVLIGTPGIGKSLAAGSYLLYQLLQYDAEQLPMVAYVFAGRK", "values": [{"measurement": "soluble on expression in E. coli", "result": "not soluble"}]}, {"sequence": "MSLDVDSKTLIHAGKLIDGKSDQVQSRISIVIDGNIISDIKKGFISSNDFEDYIDLRDHTVLPGLMDMHVHFGQEYQSKAQAPIKVEREMQAILATQHAYVTFKSGFTTVRQVGDSGLVAISLRDAINSGKLAGPRIFAAGKTIATTGGHADPTNGKAVDDYDYPVPEQGVVNGPYEVYAAVRQRYKDGADGIKITVTGGVLSVAKSGQNPQFTQEEVDAVVSAAKDYGMWVAVHAHGAEGMKRAIKAGVDSIEHGTFMDLEAMDLMIENGTYYVPTISAGEFVAEKSKIDNFFPEIVRPKAASVGPQISDTFRKAYEKGVKIAFGTDAGVQKHGTNWKEFVYMVENGMPAMKAIQSATMETAKLLRIEDKLGSIESGKLADLIAVKGNPIEDISVLENVDVVIKDGLLYEGHHHHHH", "values": [{"measurement": "soluble on expression in E. coli", "result": "soluble"}]}, {"sequence": "MAHHHHHHMVVFINGLPVLTFELKNSLTKQTVADAVVQYQTDRNPAELLFQLGRCIAHVAVDDAEVRFCTHLTGKTSWFLPFNQGWNSGAGNPPNPNGLRTDYLWKQVLAKESLANIIENYAQVIEEEEEDTNGRKRRTRKQIFPRFHQLRTVRALMRRSRADGVGKRYLIQHSAGSGKSNTIAWLAHQLVELKTAADNTQAQFDSVIVITDRRALDAQIARTIKAYDHVASIYGHSESADELRTFLAPGQEDHRHHGAEVPVHPDELGGTL", "values": [{"measurement": "soluble on expression in E. coli", "result": "not soluble"}]}, {"sequence": "MGSDKIHHHHHHMKQMKIPATYMRGGTSKGVFFALKDLPLNAQQPGPARDALLLRVIGSPDPYGKQTDGMGGATSSTSKTVILDKSQRDDHDVDYLFGQVAIDKPFVDWSGNCGNLTAAVGAFAITQGLVDSAKIPDNGIAVVKIWQANINKTIIAHVPMVDGEVQELGDFELDGVTFPAAEVLVEFVDPADGEGDMFPTGNLVDKLEVPGEPVFDATFINAGIPTIFLKAEQLGYEGTELQEAINGDAAALERFETIRAHGALQMGLIQSLDEAAGRQHTPKIAFVAPAKAYTSSSGKQIAAEEIDLHVRALSMGKLHHAMMGTAAVAIGTAASIPGTLVNQAAGGQARESVRFGHPSGTLKVGAKASEQEGRWQVEKVSMSRSARVLMQGWVCVPESLG", "values": [{"measurement": "soluble on expression in E. coli", "result": "not soluble"}]}, {"sequence": "MIDHLSRAVISDPEQNLAIEQKESDHILPDSKMTPLRFRKRTLHETKIRTHSTLTENVLSHKLQFDGRIVSRTNVLPFIQKSIYSHQCGRRKGKQYRLGDFYVGATLTFLSSDHLSLPESIKENTLLKLRITNIDQIALDSLKTASMEQEDDIIIQETNDRLVFKAIQDVLKEKLHKRGVRILTGLGKYFQQLDKEGNGLLDKADFKQALKVFHLEVSEKDFESAWLILNDNGNGKVDYGEFKRGIIGEMNEYRKSYVRKAFMKLDFNKSGSVPIINIRKCYCAKKHSQVISG", "values": [{"measurement": "soluble on expression in E. coli", "result": "soluble"}]}, {"sequence": "MRIQFEIKESLINILDQLMHSDFWATEIKEDESGKKIIKIKDLAYNLEAVAEVMGNEIFIRTALSKYTYRIYEVKGECWCEYVGAYRGFLEQKLLPIITPKENLLECEVLDSSILGGKQKTLREYAEDNLKLKKFREQNFGNNGFSKADHPRRVYDEFIKEDFIPEDKKGHSLNITKSAN", "values": [{"measurement": "soluble on expression in E. coli", "result": "not soluble"}]}, {"sequence": "KQLLFMHSSASVESLERPYLETMPGQYAAEITLFEWLDFLLERGGVKRALKAIEYYETVGWVSADAAERLQGHVRGFSGPADDDSHSDLEMSDHVLSLVYIARLSSMQ", "values": [{"measurement": "soluble on expression in E. coli", "result": "not soluble"}]}, {"sequence": "MSLTEPEDPSRERLKHHFAQRVIHQARQILEIWQRLQRSEWSTTDMSELCEANLRLLRFAERFEQPEHTQLARSISQSLEAVDANRGRLSSNLITDLNRLMQRLSRTGLRHGDQLEQTFLPPLRKPIYVMLQDHDRAERLAKQLEFFGLSAQSLDSIPAFRSSMVERLPAAIVIDVDFCGAGMGLTLAAEAQVGLEQKLPLLFFSLHETDTPTRLAAVRAGGQEFLTGTLEASSLLEKIEVLTCVAQYEPYKVLIIDDSRAQALHTERLLNSAGIVTRTLIEPIQAMAELADFQPDLIILDMYMPACTGTELAKVIRHNDRYVSVPIIYLSAEDDLDKQLDAMSEGGDDFLTKPIKPRHLITTVRNRAARARNLKARMVRDSLTGEGHHHHHH", "values": [{"measurement": "soluble on expression in E. coli", "result": "not soluble"}]}, {"sequence": "MAKLYFYYSTMNAGKSTTLLQSSYNYRERDMNTLVYTAAIDDRFGVGKVTSRIGISQDAFLFRSETNLFDEINEHLKKEKVHCVLVDEAQFLSKQQVYQLSDVVDKLKIPVLCYGLRTDFQAELFEGSKYLLAWADQLEELKTICYCGRKANFVLRLNDQGEVIKEGAQIQIGGNDSYLSVCRLHYKEKCGQILEHHHHHH", "values": [{"measurement": "soluble on expression in E. coli", "result": "soluble"}]}, {"sequence": "MGNLICTKNGGEPEIMVAAHMDEIGFAVKYIDDKGFIRIAPIGGWFSQIALAQRVVLYGKKKVYGVIGCKPPHLMKDEERKKGIEIKDMFVDIGASSKEEVLEMGINVGTPVALDREIVELANGRITGKAFDNRVGVAVMIEAVRRAKADITIHAVATVQEEVGLKGARTSAFAIEPTAAIAVDTCVAADFPGSESAHMDVKLGKGAAITVIDASGRGLIASPKVLRWLTETAEKYGIPYQLEVAEGGTTDATAIHLTKAGIPAGVVSVPARYIHSPVEVVDLKDVESAVEIVARAIENAKNYF", "values": [{"measurement": "soluble on expression in E. coli", "result": "soluble"}]}, {"sequence": "MKDDKTILILTAQFGAGHISAAKAVKECIIEKYSNYNVVIQNFINASIPMMNKPMVKLYENNTKYTPGLYNYYYYFKKSFDSRHDLSHKLYTPKLSEYIADINPDLIISTFPLAAACVNNFKIKNPDINIPTLTVITDVVDSMEWVFENTDLYFVPSPEIKNRFFQKGINPDSIKVTGVPLEHHHHHH", "values": [{"measurement": "soluble on expression in E. coli", "result": "not soluble"}]}]}
